Measurements published in patent US20250152742A1, “COMPOSITIONS AND METHODS FOR NEUROLOGICAL DISEASES” (Trames Bio, Inc., priority 2022, published 2025).

Test system: engineered chimeric receptor SEQ ID NO: 33 and its mutants (human α7-nAChR ligand binding domain / human GlyRα1 ion pore domain) in Lenti-X 293T cells
Experiment: YFP fluorescence quenching anion reporter plate reader assay (percent quench, EC50)
Assay type: cell-based
Conditions: for YFP fluorescence quenching using CNL001 (percent quench): receptor named in row; for YFP fluorescence quenching using Facinicline, 30 nM fac: ligand Facinicline 30 nM; for YFP fluorescence quenching using Facinicline, 300 nM fac: ligand Facinicline 300 nM; for YFP fluorescence quenching using Facinicline, 30 uM fac: ligand Facinicline 30 uM; for YFP fluorescence quenching using TC-6987, 1 uM tc6987: ligand TC-6987 1 uM; for YFP fluorescence quenching using TC-6987, 10 uM tc6987: ligand TC-6987 10 uM; for YFP fluorescence quenching using TC-6987, 500 uM tc6987: ligand TC-6987 500 uM; for YFP fluorescence quenching using Varenicline, 3 nM var: ligand Varenicline 3 nM; for YFP fluorescence quenching using Varenicline, 30 nM var: ligand Varenicline 30 nM; for YFP fluorescence quenching using Varenicline, 300 nM var: ligand Varenicline 300 nM; for YFP fluorescence quenching using Varenicline, 500 nM var: ligand Varenicline 500 nM; for YFP fluorescence quenching using Varenicline, 1 uM var: ligand Varenicline 1 uM
How it was run: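 Percent quench compares mean YFP signal over the final 10 s with the 15 s baseline before ligand, added in iodide-containing extracellular solution (pH 7.2). Cells were LX293T carrying a YFP anion reporter, transiently transfected with the channel construct; plates were preincubated 30 min at 37 °C.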

[1] = 1 nM CNL001, first column so headed
[2] = 1 nM CNL001, second column so headed
[3] = 3 nM brd (TC-5619/Bradanicline)
[4] = 10 nM CNL001, first column so headed
[5] = 10 nM CNL001, second column so headed
[6] = 30 nM brd (TC-5619/Bradanicline)
[7] = 50 nM CNL001, first column so headed
[8] = 50 nM CNL001, second column so headed
[9] = 100 nM CNL001, first column so headed
[10] = 100 nM CNL001, second column so headed
[11] = 300 nM brd (TC-5619/Bradanicline)
[12] = 1 uM CNL001, first column so headed
[13] = 1 uM CNL001, second column so headed

B1: CODA407: engineered receptor: Y210F in SEQ ID NO: 33 (protein)
chain: MRCSPGGVWLALAASLLHVSLQGEFQRKLYKELVKNYNPLERPVANDSQPLTVYFSLSLLQIMDVDEKNQVLTTNIWLQMSWTDHYLQWNVSEYPGVKTVRFPDGQIWKPDILLYNSADERFDATFHTNVLVNSSGHCQYLPPGIFKSSCPMDLKNFPMDVQTCKLKFGSWSYGGWSLDLQMQEADISGYIPNGEWDLVGIPGKRSERFFECCKEPYPDVTFTVTMRRRMGYYLIQMYIPSLLIVILSWISFWINMDAAPARVGLGITTVLTMTTQSSGSRASLPKVSYVKAIDIWMAVCLLFVFSALLEYAAVNFVSRQHKELLRFRRKRRHHKSPMLNLFQEDEAGEGRFNFSAYGMGPACLQAKDGISVKGANNSNTTNPPPAPSKSPEEMRKLFIQRAKKIDKISRIGFPMAFLIFNMFYWIIYKIVRREDVHNQ
modifications: synthetic sequence of chimeric LGIC
YFP fluorescence quenching using CNL001 (percent quench) [1]: −10.845%
YFP fluorescence quenching using CNL001 (percent quench) [2]: −2.629%
YFP fluorescence quenching using TC-5619/Bradanicline (percent quench) [3]: −0.53%
YFP fluorescence quenching using CNL001 (percent quench) [4]: 4.66%
YFP fluorescence quenching using CNL001 (percent quench) [5]: 12.246%
YFP fluorescence quenching using TC-5619/Bradanicline (percent quench) [6]: 8.71%
YFP fluorescence quenching using CNL001 (percent quench) [7]: 29.307%
YFP fluorescence quenching using CNL001 (percent quench) [8]: 41.78%
YFP fluorescence quenching using ABT-126 (percent quench) (50 nM abt (ABT-126)): −13.07%
YFP fluorescence quenching using CNL001 (percent quench) [9]: 50.654%
YFP fluorescence quenching using CNL001 (percent quench) [10]: 62.054%
YFP fluorescence quenching (percent quench) (100 nM CNL002): −12.47%
YFP fluorescence quenching using ABT-126 (percent quench) (100 nM abt (ABT-126)): 0.1%
YFP fluorescence quenching using AZD-0328 (percent quench) (100 nM azd0328): 0.85%
YFP fluorescence quenching using ABT-126 (percent quench) (300 nM abt (ABT-126)): 5.97%
YFP fluorescence quenching using AZD-0328 (percent quench) (300 nM azd0328): 1.25%
YFP fluorescence quenching using TC-5619/Bradanicline (percent quench) [11]: 76.26%
YFP fluorescence quenching using CNL001 (percent quench) [12]: 81.742%
YFP fluorescence quenching using CNL001 (percent quench) [13]: 81.304%
YFP fluorescence quenching (percent quench) (1 uM CNL002): −3.93%
YFP fluorescence quenching using ABT-126 (percent quench) (1 uM abt (ABT-126)): 50.23%
YFP fluorescence quenching (percent quench) (10 uM ach (acetylcholine)): −3.75%
YFP fluorescence quenching (percent quench) (30 uM CNL002): 80.97%
YFP fluorescence quenching using AZD-0328 (percent quench) (30 uM azd0328): 82.08%
YFP fluorescence quenching (percent quench) (100 uM ach (acetylcholine)): −1.6%
YFP fluorescence quenching (percent quench) (1 mM ach (acetylcholine)): 71.65%
YFP fluorescence quenching (percent quench) (3 mM ach (acetylcholine)): 79.09%
YFP fluorescence quenching using Facinicline, 30 nM fac: −21.94
YFP fluorescence quenching using Facinicline, 300 nM fac: −22.46
YFP fluorescence quenching using Facinicline, 30 uM fac: 82.63
YFP fluorescence quenching using TC-6987, 1 uM tc6987: −15.22
YFP fluorescence quenching using TC-6987, 10 uM tc6987: −19.89
YFP fluorescence quenching using TC-6987, 500 uM tc6987: −33.32
YFP fluorescence quenching using Varenicline, 3 nM var (first column): 2.441
YFP fluorescence quenching using Varenicline, 3 nM var (second column): 7.326
YFP fluorescence quenching using Varenicline, 30 nM var (first column): 1.275
YFP fluorescence quenching using Varenicline, 30 nM var (second column): 12.96
YFP fluorescence quenching using Varenicline, 300 nM var (first column): 13.119
YFP fluorescence quenching using Varenicline, 300 nM var (second column): 2.355
YFP fluorescence quenching using Varenicline, 500 nM var (first column): 11.539
YFP fluorescence quenching using Varenicline, 500 nM var (second column): 6.571
YFP fluorescence quenching using Varenicline, 1 uM var (first column): 8.397
YFP fluorescence quenching using Varenicline, 1 uM var (second column): 7.309

B2: CODA409: engineered receptor: Y210W in SEQ ID NO: 33 (protein)
chain: MRCSPGGVWLALAASLLHVSLQGEFQRKLYKELVKNYNPLERPVANDSQPLTVYFSLSLLQIMDVDEKNQVLTTNIWLQMSWTDHYLQWNVSEYPGVKTVRFPDGQIWKPDILLYNSADERFDATFHTNVLVNSSGHCQYLPPGIFKSSCPMDLKNFPMDVQTCKLKFGSWSYGGWSLDLQMQEADISGYIPNGEWDLVGIPGKRSERFWECCKEPYPDVTFTVTMRRRMGYYLIQMYIPSLLIVILSWISFWINMDAAPARVGLGITTVLTMTTQSSGSRASLPKVSYVKAIDIWMAVCLLFVFSALLEYAAVNFVSRQHKELLRFRRKRRHHKSPMLNLFQEDEAGEGRFNFSAYGMGPACLQAKDGISVKGANNSNTTNPPPAPSKSPEEMRKLFIQRAKKIDKISRIGFPMAFLIFNMFYWIIYKIVRREDVHNQ
modifications: synthetic sequence of chimeric LGIC
YFP fluorescence quenching using CNL001 (percent quench) [1]: −8.914%
YFP fluorescence quenching using CNL001 (percent quench) [2]: −14.319%
YFP fluorescence quenching using TC-5619/Bradanicline (percent quench) (1 nM brd (TC-5619/Bradanicline)): −13.45%
YFP fluorescence quenching using TC-5619/Bradanicline (percent quench) [3]: −0.64%
YFP fluorescence quenching using CNL001 (percent quench) [4]: −1.444%
YFP fluorescence quenching using CNL001 (percent quench) [5]: 4.393%
YFP fluorescence quenching using TC-5619/Bradanicline (percent quench) (10 nM brd (TC-5619/Bradanicline)): 37.3%
YFP fluorescence quenching using TC-5619/Bradanicline (percent quench) [6]: 76.36%
YFP fluorescence quenching using CNL001 (percent quench) [7]: 11.897%
YFP fluorescence quenching using CNL001 (percent quench) [8]: 11.434%
YFP fluorescence quenching using ABT-126 (percent quench) (50 nM abt (ABT-126)): 8.23%
YFP fluorescence quenching using CNL001 (percent quench) [9]: 12.719%
YFP fluorescence quenching using CNL001 (percent quench) [10]: 16.053%
YFP fluorescence quenching (percent quench) (100 nM CNL002): −14.92%
YFP fluorescence quenching using ABT-126 (percent quench) (100 nM abt (ABT-126)): 55.53%
YFP fluorescence quenching using AZD-0328 (percent quench) (100 nM azd0328): −6.57%
YFP fluorescence quenching using TC-5619/Bradanicline (percent quench) (100 nM brd (TC-5619/Bradanicline)): 72.72%
YFP fluorescence quenching using ABT-126 (percent quench) (300 nM abt (ABT-126)): 74.82%
YFP fluorescence quenching using AZD-0328 (percent quench) (300 nM azd0328): −4.84%
YFP fluorescence quenching using TC-5619/Bradanicline (percent quench) [11]: 75.47%
YFP fluorescence quenching using ABT-126 (percent quench) (500 nM abt (ABT-126)): 77.39%
YFP fluorescence quenching using CNL001 (percent quench) [12]: 14.077%
YFP fluorescence quenching using CNL001 (percent quench) [13]: 15.495%
YFP fluorescence quenching (percent quench) (1 uM CNL002): −0.85%
YFP fluorescence quenching using ABT-126 (percent quench) (1 uM abt (ABT-126)): 77.77%
YFP fluorescence quenching using TC-5619/Bradanicline (percent quench) (1 uM brd (TC-5619/Bradanicline)): 78.73%
YFP fluorescence quenching using ABT-126 (percent quench) (3 uM abt (ABT-126)): 69.33%
YFP fluorescence quenching using ABT-126 (percent quench) (10 uM abt (ABT-126)): 74.79%
YFP fluorescence quenching (percent quench) (10 uM ach (acetylcholine)): −5.43%
YFP fluorescence quenching (percent quench) (30 uM CNL002): 29.62%
YFP fluorescence quenching using ABT-126 (percent quench) (30 uM abt (ABT-126)): 75.61%
YFP fluorescence quenching using AZD-0328 (percent quench) (30 uM azd0328): 81.64%
YFP fluorescence quenching using ABT-126 (percent quench) (50 uM abt (ABT-126)): 75.72%
YFP fluorescence quenching using ABT-126 (percent quench) (100 uM abt (ABT-126)): 78.52%
YFP fluorescence quenching (percent quench) (100 uM ach (acetylcholine)): 17.14%
YFP fluorescence quenching (percent quench) (1 mM ach (acetylcholine)): 78.84%
YFP fluorescence quenching (percent quench) (3 mM ach (acetylcholine)): 78.55%
YFP fluorescence quenching using Facinicline, 30 nM fac: −10.93
YFP fluorescence quenching using Facinicline, 300 nM fac: −5.82
YFP fluorescence quenching using Facinicline, 10 uM fac (ligand Facinicline 10 uM): 60.97
YFP fluorescence quenching using Facinicline, 30 uM fac: 57.77
YFP fluorescence quenching using TC-6987, 1 uM tc6987: 62.82
YFP fluorescence quenching using TC-6987, 10 uM tc6987: 78.66
YFP fluorescence quenching using TC-6987, 500 uM tc6987: 70.35
YFP fluorescence quenching using Varenicline, 3 nM var (first column): 7.776
YFP fluorescence quenching using Varenicline, 3 nM var (second column): −2.964
YFP fluorescence quenching using Varenicline, 30 nM var (first column): −5.568
YFP fluorescence quenching using Varenicline, 30 nM var (second column): 3.024
YFP fluorescence quenching using Varenicline, 300 nM var (first column): 2.815
YFP fluorescence quenching using Varenicline, 300 nM var (second column): 3.06
YFP fluorescence quenching using Varenicline, 500 nM var (first column): 1.766
YFP fluorescence quenching using Varenicline, 500 nM var (second column): 2.819
YFP fluorescence quenching using Varenicline, 1 uM var (first column): 1.844
YFP fluorescence quenching using Varenicline, 1 uM var (second column): −4.059
